Measurements reported in patent US20210292393A1 (published 2021).

How the values were obtained:
[1] = target: T1, SARS-CoV-2 full length spike protein (wild-type), conjugated to optically encoded beads (SARS-CoV-2, UniProt P0DTC2 14-1208); assay: multiplexed bead flow cytometry, column D
T1 construct: also called SARS-CoV-2 spike (S) protein; full-length trimeric SARS-CoV-2 spike protein

[2] = target: T2, SARS-CoV-2 full length spike protein (wild type), expressed on the surface of transiently transfected CHO … (SARS-CoV-2, UniProt P0DTC2 14-1273); assay: flow cytometry, CHO cells with full-length WT SARS-CoV-2 spike
T2 construct: also called SARS-CoV-2 spike (S) protein; Wild-Type SARS-CoV-2

[3] = target: T2, SARS-CoV-2 full length spike protein …
[4] = target: T3, SARS-CoV-2 full length spike protein (wild type) (SARS-CoV-2, UniProt P0DTC2 14-1273); assay: flow cytometry, CHO cells expressing full-length wild-type SARS-CoV-2 spike
T3 construct: also called SARS-CoV-2 spike; S protein

[5] = target: T3, SARS-CoV-2 full length spike protein …
[6] = target: T4, SARS-CoV-2 full length spike protein (wild type) (SARS-CoV-2, UniProt P0DTC2 14-1208); assay: multiplexed bead assay, flow cytometry; columns A, B, D, G, H, I
T4 construct: also called SARS-CoV-2 spike; S protein

[7] = target: T5, SARS-CoV-2 full length spike protein, wild type, expressed on the surface of transiently transfected CHO cells (SARS-CoV-2, UniProt P0DTC2 14-1273); assay: flow cytometry, CHO cells expressing full-length WT spike
T5 construct: also called SARS-CoV-2 spike (S) protein; Wild-Type SARS-CoV-2

[8] = target: T6, SARS-CoV-2 spike (S) protein, full length, wild type (SARS-CoV-2, UniProt P0DTC2 14-1208); assay: multiplexed bead assay, flow cytometry
T6 construct: also called SARS-CoV-2 full length spike; full-length trimeric SARS-CoV-2 spike protein

[9] = target: SARS-CoV-2 spike protein on infectious SARS-CoV-2 virus, Italy-INMI1 isolate (SARS-CoV-2, UniProt P0DTC2 14-1273); assay: cell-based or functional assay

B1: antibody 541 (antibody, V domains shown)
VH: QVQLVQSGAEVKKPGASVKVSCKASGYTFTSYYVHWVRQAPGQSLEWMGVISPSTGSTTYAQNFQGRVTMTRDTSTTTVYMELSSLRSEDTAVYYCARDDYYDSTRYFDLWGRGTLVTVSS
VL: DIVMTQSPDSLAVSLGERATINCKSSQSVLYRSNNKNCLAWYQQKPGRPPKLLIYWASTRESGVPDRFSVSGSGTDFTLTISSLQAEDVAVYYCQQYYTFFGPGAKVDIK
B1: no binding [1].

B2: antibody 450 (antibody, V domains shown)
VH: EVQLVESGGGLVQPGGSLRLSCAASEFTFSSYWMSWVRQAPGKGLEWVANIKQDGSEKYYVDSVKGRFTISRDNAKNSLYLQMNSLRAEDTAVYYCARVGEYSGYDLFFDYWGQGTLVTVSS
VL: NFMLTQPHSVSESPGKTVTISYTGSSGSIASNYVQWYQQRPGSAPTTVIYEDNQRPSGVPDRFSGSIDSSSNSASLTISGLKTEDEADYYCQSYDSSNQGVFGGGTKLTVL
B2 was tested, and the binding result [2] was “no binding” and the “median fluorescence intensity, fold over isotype control” value [3] was 0.85 fold over isotype.

B3: antibody 296 (antibody, V domains shown)
VH: EVQLVESGGGLVQPGGSLRLSCAGSGFTLSNYWMTWVRQAPGKGLEWVANINQDASRKYYGDSVKGRFSVSRDNAKNSLYLQMNSLTAEDTGFYYCVREELPSTPGSTWGQGTLVTVSS
VL: QSALTQPASVSGSPGQSITISCTGTSSDIGGYNHVSWYQQHPGKAPKLMIYGVSNRPSGVSDRFSGSKSDNTASLTISGLQAEDEADYYCSSPTSRGNKVFGTGTKVTVL
With B3 the binding result [4] was “no binding” and the “median fluorescence intensity, fold over isotype control” value [5] was 1.12 fold over isotype.

B4: antibody 510 (antibody, V domains shown)
VH: QVQLQESGPGLVKPSQTLSLTCTVSGGSISSGSYYWSWIRQPAGKGLEWIGRIYTSGSTNYNPSLKSRVTISVDTSKNQFSLKLSSVTAADTAVYYCAREGQWLYRFDYWGQGTLVTVSS
VL: QSALTQPASVSGSPGQSITISCTGTSSDVGNYDLVSWYQQHPGKAPKLVIYGVTKRPSGVSNRFSGSKSGNTASLTISGLQAEDEADYYCCSYATGDTSVFGTGTKVTVL
B4: no binding [1].

B5: antibody 341 (antibody, V domains shown)
VH: QLQLQESGPGLVKPSETLSLTCTVSGGSISSSSYYWGWIRQPPGKGLEWIGSIYYSGSTYYNPSLKSRVTISVDTSKNQFSLKLSSVTAADTAVYYCARRPLRYFDWLTNFDYWGQGTLVTVSS
VL: EIVLTQSPATLSLSPGERATLSCRASQSVSSYLAWYQQKPGQAPRLLIYDASNRATGIPARFSGSGSGTDFTLTISSLEPEDFAVYYCQQRSNWPITFGQGTRLEIK
B5: no binding [6].

B6: antibody 432 (antibody, V domains shown)
VH: QVQLQESGPGLVKPSQTLSLTCTVSGGSISSGGYYWNWIRQHPGKGLEWIGYIYDSGSTYYNPSLKSRLTLSIDTSQNQFSLRRTSVTAADTAVYYCARGRQYDYDRTGLQYYFDYWGQGTLVTVSS
VL: EIVLTQSPGTLSLSPGERATLSCRASQSFSSSYLAWYQQKPGQAPRLLIYGASSRATGIPDRFSGSGSGTDFTLTISRLEPEDFAVYYCQQYGTSSLTFGGGTKVEIK
B6: no binding [7].

B7: antibody 474 (antibody, V domains shown)
VH: EVQLVESGGGLVQPGGSLRLSCAASGFTFSSYWMHWVRQAPGKGLVWVSRINSDGSSTSYADSVKGRFTISRDNAKNTLYRQMNSLRAEDTAVYYCALGPLDIVGSYYYYGMDVWGQGTTVTVSS
VL: NFMLTQPHSVSESPGKTVTISCTGSSGSIASNYVQWYQQRPGSAPTTVIYEDNQRPSGVPDRFSGSIDSSSNSASLTISGLKTEDEADYYCQSYDSSNQDVVFGGGTKLTVL
B7: no binding [2].

B8: anti-SARS-CoV-2 antibody 474 (antibody, V domains shown)
VH: EVQLVESGGGLVQPGGSLRLSCAASGFTFSSYWMHWVRQAPGKGLVWVSRINSDGSSTSYADSVKGRFTISRDNAKNTLYRQMNSLRAEDTAVYYCALGPLDIVGSYYYYGMDVWGQGTTVTVSS
VL: NFMLTQPHSVSESPGKTVTISCTGSSGSIASNYVQWYQQRPGSAPTTVIYEDNQRPSGVPDRFSGSIDSSSNSASLTISGLKTEDEADYYCQSYDSSNQDVVFGGGTKLTVL
B8: no binding [8].

B9: antibody 514 (antibody, V domains shown)
VH: EVQLVQSGAEVKKPGATVKISCKVSGYTFTDYYMHWVQQAPGKGLEWMGLVDPEDGETIYAEKFQGRVTITADTSTDTAYMELSSLRSEDTAVYYCATDCKYDILTGHYSAGYYYYGMDVWGQGTTVTVSS
VL: DIQMTQSPSSLSASVGDRVTITCRASQGISNYLAWFQQKPGKAPKSLIYAASSLQSGVPSKFSGSGSGTDFTLTISSLQPEDFATYYCQQYNSYPFTFGGGTKVEIK
B9: no binding [1].

B10: antibody 290 (antibody, V domains shown)
VH: QVHLVQSGAEVKKPGASVKVSCAASGYTFNNYGVSWVRQAPGQGLEWMGWISASNGNTKYAQNLQGRVTMTTDTSTSTAYMELRSLRSDDTAVYYCARDLVGPTAPNYYYGMDVWGQGTAVTVSS
VL: QSVLTQPPSVSGAPGQRVTISCTGSSSSIGAGYDVHWYQQLPGTAPKLLIYANSNRPSGVPDRLSGSKSGTSASLAITGLQAEDEADYYCQSYDSSLSGYVFGTGTKVTVL
B10: no binding [4].

B11: mAb 555 (antibody, V domains shown)
VH: QVQLVQSGAEVKKPGSSVKVSCKASGGTFSNYAISWVRQAPGQGLEWMGRIIPILGIANYAQKFQGRVTITADKSTSTAYMELSSLRSEDTAVYYCARGYYEARHYYYYYAMDVWGQGTAVTVSS
VL: not shown
B11 was tested, and the “IC50, live virus neutralization of Italy-INMI1 isolate; Lab 2, plaque reduction” value [9] was 0.05 µg/mL.
